Biological target: bovine pancreatic trypsin (bovine) (UniProt P00760)
Assay: inhibition of bovine trypsin, substrate Boc-Leu-Gly-Arg-pNA, tight-binding fit (Morrison); apparent Ki (Kiapp)

Sequence of bovine pancreatic trypsin (bovine) (P00760 24-246): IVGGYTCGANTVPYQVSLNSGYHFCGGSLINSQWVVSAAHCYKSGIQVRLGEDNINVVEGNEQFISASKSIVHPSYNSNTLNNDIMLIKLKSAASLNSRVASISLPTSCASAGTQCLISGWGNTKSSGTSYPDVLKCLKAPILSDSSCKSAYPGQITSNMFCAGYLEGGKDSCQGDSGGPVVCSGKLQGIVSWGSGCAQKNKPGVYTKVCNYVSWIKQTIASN

Ki [nM] | Substance
9 | barnase′-EETI-II fusion protein (from UniProt P00648 48-157)
71 | barnase′-McoEeTI fusion protein (from UniProt P00648 48-157)

— patent US20090130692A1
